For this assay, the target named is Campylobacter jejuni resistance enhancing CmeB (RE-CmeB) multidrug efflux pump (C. jejuni). The assay is described as follows: cryo-EM structure; single-particle cryo-EM of 20 uM RE-CmeB in lipidic nanodiscs (MSP 1E3D1, E. coli total extract lipid; 20 mM Tris-HCl pH 7.5, 100 mM NaCl); apo, with fortuitous hydrolyzed ampicillin, or incubated with 1 mM Cip, Ery or Chl for 2 h on ice.

With “Campylobacter jejuni resistance enhancing CmeB (RE-CmeB) multidrug efflux pump (natural protein)”, the stoichiometry N was 3.

For orientation: stoichiometry N means the number of molecules, sites or subunits per partner or assembly.

Values taken from paper PMC10434076.
